Experimental data as given in patent US20250282885A1 (VST BIO, published 2025).

Columns and labels:
[1] = target: human Sdc2 on Human Umbilical Vein Endothelial Cells (HUVEC) (human, UniProt P34741 19-201); assay: cell-based or functional assay
human Sdc2 [2] = target: T1, human Sdc2 (human, UniProt P34741 19-144, limits assumed); assay: Kd (human Sdc2), summary table of the mAbs
T1 construct: Antigen of the Octet tandem binning, loaded on biosensors at 100 nM; also called huSdc2; hSdc2

human Sdc2 [3] = target: T1, human Sdc2; assay: Octet BLI, heading box over the sensorgram
human Sdc2 [4] = target: T1, human Sdc2; assay: Octet tandem binning; saturating Ab f3 19838-6N03-A
Protocol: (§1) These studies were performed in a tandem binning assay format with human Sdc2, used as the antigen (concentration of 100 nM). Antigen loaded biosensors were dipped in a saturating solution of antibody (25 μg/ml) for 240 seconds followed by a competing antibody at 5 μg/ml for 180 seconds. […] Since saturation is not possible to achieve saturation with these clones, they are removed in as ligands, but retained in the analyte orientation in the analysis. A table summarizing the results of epitope binning of the 18 antibodies against huSdc2 is illustrated in FIG. 30. Data is normalized, where the raw binding signal from Competing Ab for a given Saturating Ab is divided by binding in the absence a […] (“buffer”). The threshold determining the matrix color is adjustable and dependent upon Ag-Ab binding. […] Table rows are based on similar looking binding profiles. Note that the coloration/cutoff is subjective, yellow color added to represent injections with ambiguous or very weak sandwiching signals. FIG. 31 illustrates a clustergram of the epitope binning studies, which was generated from the normalized binning data by importation into the statistical computing program R (The R Project for Statistical Computing: at r-project.org) and generation of a clustergram with the pvclust package.

human Sdc2 [5] = target: T1, human Sdc2; assay: Octet tandem binning; saturating Ab m2 19838-8G17-A
Protocol: as §1

human Sdc2 [6] = target: T1, human Sdc2; assay: Octet tandem binning; saturating Ab f9 19838-6-E17-A
Protocol: as §1

human Sdc2 [7] = target: T1, human Sdc2; assay: Octet tandem binning; saturating Ab f12 19838-6-N03-A
Protocol: as §1

human Sdc2 [8] = target: T1, human Sdc2; assay: Octet tandem binning; saturating Ab m1 19838-20H19-AB
Protocol: as §1

human Sdc2 [9] = target: T1, human Sdc2; assay: Octet tandem binning; saturating Ab f10 19838-10-I12-A
Protocol: as §1

human Sdc2 [10] = target: T1, human Sdc2; assay: Octet tandem binning; saturating Ab f11 19838-20-H19-A
Protocol: as §1

human Sdc2 [11] = target: T1, human Sdc2; assay: Octet tandem binning; saturating Ab f4 19844-R3-P3-C11
Protocol: as §1

human Sdc2 [12] = target: T1, human Sdc2; assay: Octet tandem binning; saturating Ab f6 19844-R3-P3-E09
Protocol: as §1

human Sdc2 [13] = target: T1, human Sdc2; assay: Octet tandem binning; saturating Ab f7 19844-R3-P3-A12
Protocol: as §1

human Sdc2 [14] = target: T1, human Sdc2; assay: Octet tandem binning; saturating Ab m7 19844-R3-P1-E07
Protocol: as §1

human Sdc2 [15] = target: T1, human Sdc2; assay: Octet tandem binning; saturating Ab f8 19844-R4M-P2-C02
Protocol: as §1

human Sdc2 [16] = target: T1, human Sdc2; assay: Octet tandem binning; saturating Ab m4 19844-R4M-P1-A10
Protocol: as §1

human Sdc2 [17] = target: T1, human Sdc2; assay: Octet tandem binning; Buffer in place of a saturating Ab
Protocol: as §1

human Sdc2 [18] = target: T1, human Sdc2; assay: Octet BLI, AHC sensor loaded with the antibody, huSdc2 as sample; Full R2 0.9525
Protocol: In order to characterize the binding affinity and in vivo/in vitro functional ability of the twelve clones generated by the previous studies and disclosed in Table 1, a series of assays were performed on each clone. These assays measured the affinity of each antibody clone for human, pig, and mouse Sdc2 using an Octet® binding assay system. Additionally, the functional ability of each clone to inhibit VEGFA-driven permeability (see Santiago, et al. (2021) J Am Heart Assoc. 10(18):e020521) was assessed in two therapeutic settings: a “prevention” study in which three concentrations of antibody (5 μg/ml, 10 μg/ml, 15 μg/ml, 20 μg/ml, and/or 40 μg/ml depending on the study) were pre-incubated for an hour before administration of 100 ng/ml of VEGFA, and a “treatment” study in which 3 hours of pre-treatment with 100 ng/ml VEGFA were followed by treatment with antibody at 20 μg/ml or 40 μg/ml. Results are shown for 8-G17 in FIG. 8 and FIG. 9, 20-H19-AB in FIG. 10 and FIG. 11 (FIG. 12 for monkey ECs), R3-P3-C11 in FIG. 13 and FIG. 14, R4M-P3-E06 in FIG. 15 and FIG. 16, R3-P3-E09 in FIG. 17 and FIG. 18, R3-P1-C02 in FIG. 19 and FIG. 20, R3-P3-A12 in FIG. 21 and FIG. 22, R4M-P3-A12 in FIG. 23 and FIG. 24, and R4M-P1-A10 in FIG. 25 and FIG. 26.

human Sdc2 [19] = target: T1, human Sdc2; assay: Octet tandem binning; saturating Ab m6 19838-20H19-AA (marked non-binding ligand)
Protocol: as §1

human Sdc2 [20] = target: T1, human Sdc2; assay: Octet tandem binning; saturating Ab m3 19844-R3-P1-C02 (row boxed, self-self >0.09)
Protocol: as §1

human Sdc2 [21] = target: T1, human Sdc2; assay: Octet tandem binning; saturating Ab m8 19844-R4M-P1-B01 (marked non-binding ligand)
Protocol: as §1

human Sdc2 [22] = target: T1, human Sdc2; assay: Octet tandem binning; saturating Ab m5 19844-R4M-P3-A12 (row boxed, self-self >0.09)
Protocol: as §1

human Sdc2 [23] = target: T1, human Sdc2; assay: Octet BLI, AHC sensor loaded with the antibody, huSdc2 as sample (curves huSdc2, 2000 and 1000, unit inferred); Full R2 0.9525
human Sdc2 [24] = target: T1, human Sdc2; assay: Octet BLI, heading box over the sensorgram; remark: listed apart in the source
pig Sdc2 [25] = target: T2, pig Sdc2 (pig, UniProt F1S0L5 19-145); assay: Octet BLI, heading box over the sensorgram
T2 construct: also called pSdc2

human Sdc2 [26] = target: T1, human Sdc2; assay: Octet tandem binning; saturating Ab f5 19844-R4M-P3-E06
Protocol: as §1

human Sdc2 [27] = target: T1, human Sdc2; assay: Octet BLI, HIS1K sensor loaded with huSdc2, antibody as sample; Full R2 0.9738
pig Sdc2 [28] = target: T2, pig Sdc2; assay: Octet BLI, HIS1K sensor loaded with pigSdc2, antibody as sample; Full R2 0.9504

T1 sequence (P34741 19-144 limits assumed): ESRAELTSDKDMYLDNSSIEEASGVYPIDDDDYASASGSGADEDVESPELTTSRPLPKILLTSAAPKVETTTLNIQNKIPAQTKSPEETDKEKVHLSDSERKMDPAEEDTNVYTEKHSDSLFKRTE
Sequence of human Sdc2 on Human Umbilical Vein Endothelial Cells (HUVEC) (P34741 19-201 limits assumed): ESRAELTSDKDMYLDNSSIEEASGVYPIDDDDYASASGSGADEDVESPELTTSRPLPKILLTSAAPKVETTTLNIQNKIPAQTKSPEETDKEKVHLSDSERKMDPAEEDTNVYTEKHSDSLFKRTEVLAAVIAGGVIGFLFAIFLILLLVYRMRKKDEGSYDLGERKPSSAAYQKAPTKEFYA

Binder | % Inhibition of VEGFA-induced permeability at 24hrs (20ug/ml) [1] [%] | Kd (human Sdc2 [2]) [nM] | raw competing-Ab binding signal (human Sdc2 [4]) | raw competing-Ab binding signal (human Sdc2 [5]) | raw competing-Ab binding signal (human Sdc2 [6]) | raw competing-Ab binding signal (human Sdc2 [7]) | raw competing-Ab binding signal (human Sdc2 [8]) | raw competing-Ab binding signal (human Sdc2 [9]) | raw competing-Ab binding signal (human Sdc2 [10]) | raw competing-Ab binding signal (human Sdc2 [12]) | raw competing-Ab binding signal (human Sdc2 [13]) | raw competing-Ab binding signal (human Sdc2 [14]) | raw competing-Ab binding signal (human Sdc2 [15]) | raw competing-Ab binding signal (human Sdc2 [16]) | raw competing-Ab binding signal (human Sdc2 [17]) | raw competing-Ab binding signal (human Sdc2 [19]) | raw competing-Ab binding signal (human Sdc2 [20]) | raw competing-Ab binding signal (human Sdc2 [21]) | raw competing-Ab binding signal (human Sdc2 [22]) | other results
R4M-P3-E06 (antibody, human IgG1, kappa, V domains shown, human IgG1 kappa from the phage campaign) VH: EVQLVESGGGVVQPGGSLRLSCAASGFTFSNYGMHWVRQAPGKGLEWVATISYDGTKKYYPDSVRGRFTISRDNSENMLYLQMDSLRLEDTAVIYCAKDLVSGSRYGFAFDSWGPGTLVTVSS VL: DIVMTQSPLSLPVTLGQPASISCRSSQSLVHSDGNTYLNWFQQRPGQSPRRLIYKVSNRDSGVPDRFSGTGSGTDFTLKISRVEADDVGVYYCMQGTHWPPIFGQGTRLEIKR | 95 | 448 | 0.209 | 0.183 | 0.231 | 0.252 | 0.284 | 0.241 | 0.311 | 0.025 | 0.0799 | 0.247 | 0.0709 | 0.116 | 0.256 | 0.251 | 0.0913 | 0.25 | 0.223 | Kd (human Sdc2 [3]): ~480 nM; raw competing-Ab binding signal (human Sdc2 [11]): 0.0598; koff (human Sdc2 [18]): 0.041 s⁻¹; kon (human Sdc2 [18]): 84000 M⁻¹ s⁻¹; Kd (human Sdc2 [23]): 488 nM
R3-P3-C11 (antibody, human IgG1, kappa, V domains shown, human IgG1 kappa from the phage campaign) VH: EVQLVESGGGLVQPGRSLRLACEASGFTFNNYAVHWVRQAPGKGLEWVAVISYDGTNKYYSDSMKGRFTISRDNSKNTLYLQINSLRVEDTAVYFCARGNYVRRDSFDIWGQGTMVTVSS VL: DIQMTQSPPSLSASVGDRVTITCRASQSISSYLNWYQQKPGKAPKLLIYGASSLQSGVPLRFSGSGSGADFTLTISSLQPEDFATYYCQQSYISPITFGQGTRLEIKR | 100 | 2.26 | 0.645 | 0.629 | 0.542 | 0.697 | 0.569 | 0.351 | 0.585 | 0.299 | -0.0267 | 0.573 | 0.479 | 0.518 | 0.523 | 0.593 | 0.491 | 0.576 | 0.562 | Kd (human Sdc2 [24]): ~2.26 nM; Kd (pig Sdc2 [25]): ~10.2 nM; raw competing-Ab binding signal (human Sdc2 [26]): 0.61; Kd (human Sdc2 [27]): 2.26 nM; koff (human Sdc2 [27]): 0.00304 s⁻¹; kon (human Sdc2 [27]): 1.34e+06 M⁻¹ s⁻¹; Kd (pig Sdc2 [28]): 10.2 nM; koff (pig Sdc2 [28]): 0.0417 s⁻¹; kon (pig Sdc2 [28]): 4.1e+06 M⁻¹ s⁻¹
